This series addresses TFPI (tissue factor pathway inhibitor, full-length) (Homo sapiens, UniProt P10646 SEQ:1-276). Briefly: competition; dot-blot. The following applies: tags: American Diagnostica 4500PC/4900PC, E. coli expressed. As to the method: Each molecule was evaluated for binding to tissue factor pathway inhibitor (TFPI) in a binding-competition assay. For these experiments, 10 nM human TFPI (American Diagnostica, Stamford, Conn., catalog #4500PC) was incubated with trace amounts of radiolabeled ARC17480 and 5000 nM, 1666.67 nM, 555.56 nM, 185.19 nM, 61.73 nM, 20.58 nM, 6.86 nM, 2.29 nM, 0.76 nM or 0.25 nM of unlabeled competitor aptamer. ARC17480 was included as a competitor in every experiment as a control. For each molecule, the percentage of radiolabeled ARC17480 bound at each competitor aptamer concentration was used for analysis. The percentage of radiolabeled ARC17480 bound was plotted as a function of aptamer concentration and fit to the equation y=(max/(1+x/IC₅₀))+int, where y=the percentage of radiolabeled ARC17480 bound, x=the concentration of aptamer, max=the maximum radiolabeled ARC17480 bound, and int=the y-intercept, to generate an IC₅₀ value for binding-competition. The IC₅₀ of each aptamer was compared to the IC₅₀ of ARC17480 that was evaluated in the same experiment. A substitution was considered tolerated in the binding-competition assay if the IC₅₀ of that molecule was not more than 5-fold greater than that of ARC17480 evaluated in the same experiment. Tolerated substitutions are indicated in Table 37 as meeting the assay criteria (“yes”) or not meeting the assay criteria (“no”).
Sequence of TFPI (tissue factor pathway inhibitor, full-length) (P10646 29-304): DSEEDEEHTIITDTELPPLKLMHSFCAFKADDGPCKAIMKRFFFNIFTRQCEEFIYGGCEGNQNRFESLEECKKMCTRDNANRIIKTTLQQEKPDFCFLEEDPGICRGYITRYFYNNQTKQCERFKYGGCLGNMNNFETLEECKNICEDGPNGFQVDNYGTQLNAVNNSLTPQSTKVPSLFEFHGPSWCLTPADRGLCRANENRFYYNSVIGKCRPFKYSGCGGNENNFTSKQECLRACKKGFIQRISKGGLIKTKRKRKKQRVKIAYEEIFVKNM
GGAATAUACUUGGCUCGUUAGGUGCGUAUAUA (XNA, 2'-OMe except dC9, dC14, dC16, dC25 and dT5; 3' idT) [ARC19452]: the binding signal is no more than 5 fold IC50 vs ARC17480. In turn, GGAAUAUACUUGGCUCGUUAGGTGCGUAUAUA (XNA, 2'-OMe except dC9, dC14, dC16, dC25 and dT23; 3' idT) [ARC19467] gave a binding signal of no more than 5 fold IC50 vs ARC17480. Next, GGAAUAUACUUGGCUCGUUAGGUGCGUAUAUA (XNA, 2'-OMe except dC9, dC14, dC16, dC25 and dG17; 3' idT) [ARC19461]: no more than 5 fold IC50 vs ARC17480. In turn, GGAAUAUACUUGGCUCGUUAGGUGCGUAUAUA (XNA, 2'-OMe except dC9, dC14, dC16, dC25 and dG12; 3' idT) [ARC19458] gave a binding signal of no more than 5 fold IC50 vs ARC17480. With GGAAUAUACUUGGCUCGUUAGGUGCGUAUAUA (XNA, 2'-OMe except dC9, dC14, dC16, dC25 and dG1; 3' idT) [ARC19448] the figure was no more than 5 fold IC50 vs ARC17480; with GGAAUAUACUUGGCUCGUUAGGUGCGUAUAUA (XNA, 2'-OMe except dC9, dC14, dC16, dC25 and dU7; 3' idT) [ARC33868], no more than 5 fold IC50 vs ARC17480; with GGAAUAUACUUGGCUCGUUAGGUGCGTAUAUA (XNA, 2'-OMe except dC9, dC14, dC16, dC25 and dT27; 3' idT) [ARC19470], no more than 5 fold IC50 vs ARC17480. Next, GGAAUAUACUUGGCUCGUUAGGUGCGUAUAUA (XNA, 2'-OMe except dC9, dC14, dC16, dC25 and dG2; 3' idT) [ARC19449]: no more than 5 fold IC50 vs ARC17480; GGAAUAUACUUGGCUCGUUAGGUGCGUAUAUA (XNA, 2'-OMe except dC9, dC14, dC16, dC25 and dU19; 3' idT) [ARC33873]: no more than 5 fold IC50 vs ARC17480.

For GGAAUAUACUUGGCUCGUUAGGUGCGUAUAUA (XNA, 2'-OMe except dC9, dC14, dC16, dC25 and dA32; 3' idT) [ARC19475], the binding signal was no more than 5 fold IC50 vs ARC17480. Molecule GGAAUAUACUUGGCUCGUUAGGUGCGUAUAUA (XNA, 2'-OMe except dC9, dC14, dC16, dC25 and dG21; 3' idT) [ARC19465] came in with a binding signal of no more than 5 fold IC50 vs ARC17480.

Take GGAAUAUACUUGGCUCGUUAGGUGCGUAUAUA (XNA, 2'-OMe except dC9, dC14, dC16, dC25 and dA8; 3' idT) [ARC19455]: the binding signal was no more than 5 fold IC50 vs ARC17480. Turning to GGAAUAUACUUGGCUCGUUAGGUGCGUAUAUA (XNA, 2'-OMe except dC9, dC14, dC16, dC25 and dU23; 3' idT) [ARC33874], the binding signal was no more than 5 fold IC50 vs ARC17480. Next, GGAAUAUACUUGGCUCGUUAGGUGCGUAUAUA (XNA, 2'-OMe except dC9, dC14, dC16, dC25 and dU27; 3' idT) [ARC33875]: no more than 5 fold IC50 vs ARC17480.

Turning to GGAAUAUACUUGGCUCGUUAGGUGCGUAUAUA (XNA, 2'-OMe except dC9, dC14, dC16, dC25 and dA4; 3' idT) [ARC19451], the binding signal is no more than 5 fold IC50 vs ARC17480. Next, GGAAUAUACUUGGCUCGUUAGGUGCGUAUAUA (XNA, 2'-OMe except dC9, dC14, dC16, dC25 and dU31; 3' idT) [ARC33877]: no more than 5 fold IC50 vs ARC17480. Next, GGAAUAUACUTGGCUCGUUAGGUGCGUAUAUA (XNA, 2'-OMe except dC9, dC14, dC16, dC25 and dT11; 3' idT) [ARC19457]: no more than 5 fold IC50 vs ARC17480; GGAAUAUACUUGGCUCGUUAGGUGCGUAUAUA (XNA, 2'-OMe except dC9, dC14, dC16, dC25 and dA3; 3' idT) [ARC19450]: no more than 5 fold IC50 vs ARC17480; GGAAUAUACUUGGCUCGUUAGGUGCGUAUAUA (XNA, 2'-OMe except dC9, dC14, dC16, dC25 and dU15; 3' idT) [ARC33871]: no more than 5 fold IC50 vs ARC17480.

Take GGAAUAUACUUGGCUCGUUAGGUGCGUAUAUA (XNA, 2'-OMe except dC9, dC16, dC25; 2'-F C14; 3' idT) [ARC19494]: the binding signal is no more than 5 fold IC50 vs ARC17480. Consider GGAAUAUACUUGGCUCGUUAGGUGCGUAUAUA (XNA, 2'-OMe except dC9, dC14, dC16, dC25 and dA30; 3' idT) [ARC19473], for which the binding signal was no more than 5 fold IC50 vs ARC17480. Next, GGAAUAUACUUGGCUCGUUAGGUGCGUAUAUA (XNA, 2'-OMe except dC9, dC14, dC16, dC25 and dG22; 3' idT) [ARC19466]: no more than 5 fold IC50 vs ARC17480; GGAAUAUACUUGGCUCGUUAGGUGCGUAUAUA (XNA, 2'-OMe except dC9, dC14, dC16; 2'-F C25; 3' idT) [ARC19496]: no more than 5 fold IC50 vs ARC17480; GGAAUAUACUUGGCUCGUUAGGUGCGUAUATA (XNA, 2'-OMe except dC9, dC14, dC16, dC25 and dT31; 3' idT) [ARC19474]: no more than 5 fold IC50 vs ARC17480.

GGAAUAUACUUGGCUCGUUAGGUGCGUAUAUA (XNA, 2'-OMe except dC9, dC14, dC16, dC25 and dG13; 3' idT) [ARC19459] showed a binding signal of no more than 5 fold IC50 vs ARC17480. Next, GGAAUAUACUUGGCUCGUUAGGUGCGUATAUA (XNA, 2'-OMe except dC9, dC14, dC16, dC25 and dT29; 3' idT) [ARC19472]: no more than 5 fold IC50 vs ARC17480; GGAAUAUACUUGGCUCGUUAGGUGCGUAUAUA (XNA, 2'-OMe except dC9, dC14, dC16, dC25 and dU18; 3' idT) [ARC33872]: no more than 5 fold IC50 vs ARC17480; GGAAUAUACUUGGCUCGUUAGGUGCGUAUAUA (XNA, 2'-OMe except dC9, dC14, dC25; 2'-F C16; 3' idT) [ARC19495]: no more than 5 fold IC50 vs ARC17480. With GGAAUAUACUUGGCTCGUUAGGUGCGUAUAUA (XNA, 2'-OMe except dC9, dC14, dC16, dC25 and dT15; 3' idT) [ARC19460], the binding signal is no more than 5 fold IC50 vs ARC17480. Next, GGAAUAUACUUGGCUCGUUAGGUGCGUAUAUA (XNA, 2'-OMe except dC9, dC14, dC16, dC25 and dU29; 3' idT) [ARC33876]: no more than 5 fold IC50 vs ARC17480; GGAAUAUACUUGGCUCGUUAGGUGCGUAUAUA (XNA, 2'-OMe except dC9, dC14, dC16, dC25 and dA6; 3' idT) [ARC19453]: no more than 5 fold IC50 vs ARC17480.

In turn, GGAAUAUACUUGGCUCGUUAGGUGCGUAUAUA (XNA, 2'-OMe except dC9, dC14, dC16, dC25 and dG24; 3' idT) [ARC19468] showed a binding signal of no more than 5 fold IC50 vs ARC17480. Molecule GGAAUATACUUGGCUCGUUAGGUGCGUAUAUA (XNA, 2'-OMe except dC9, dC14, dC16, dC25 and dT7; 3' idT) [ARC19454] returned a binding signal of no more than 5 fold IC50 vs ARC17480. Next, GGAAUAUACUUGGCUCGUUAGGUGCGUAUAUA (XNA, 2'-OMe except dC9, dC14, dC16, dC25 and dU5; 3' idT) [ARC33867]: no more than 5 fold IC50 vs ARC17480; GGAAUAUACUUGGCUCGUUAGGUGCGUAUAUA (XNA, 2'-OMe except dC9, dC14, dC16, dC25 and dA20; 3' idT) [ARC19464]: no more than 5 fold IC50 vs ARC17480. With GGAAUAUACUUGGCUCGUUAGGUGCGUAUAUA (XNA, 2'-OMe except dC9, dC14, dC16, dC25 and dA28; 3' idT) [ARC19471] the figure was no more than 5 fold IC50 vs ARC17480. With GGAAUAUACUUGGCUCGUTAGGUGCGUAUAUA (XNA, 2'-OMe except dC9, dC14, dC16, dC25 and dT19; 3' idT) [ARC19463] the figure was no more than 5 fold IC50 vs ARC17480.

Values taken from patent US20110281938, “APTAMERS TO TISSUE FACTOR PATHWAY INHIBITOR AND THEIR USE AS BLEEDING DISORDER THERAPEUTICS” (Baxter Healthcare S.A., published 2011).
